Assay results from publication PMC4759581, “A DNA aptamer recognising a malaria protein biomarker can function as part of a DNA origami assembly”.

B1: aptamer staple 85 (ssDNA)
DNA: CTTTACAGTTAGCGAACCTCCCGACGTAGGAATTTTTTTTTTTTTTTTTTTTCTGGGCGGTAGAACCATAGTGACCCAGCCGTCTAC
B2: aptamer staple 93 (ssDNA)
DNA: GAGCAAAAACTTCTGAATAATGGAAGAAGGAGTTTTTTTTTTTTTTTTTTTTCTGGGCGGTAGAACCATAGTGACCCAGCCGTCTAC
B3: aptamer staple 76 (ssDNA)
DNA: TATCACCGTACTCAGGAGGTTTAGCGGGGTTTTTTTTTTTTTTTTTTTTTTTCTGGGCGGTAGAACCATAGTGACCCAGCCGTCTAC
B4: aptamer staple 83 (ssDNA)
DNA: TTATTACGGTCAGAGGGTAATTGAATAGCAGCTTTTTTTTTTTTTTTTTTTTCTGGGCGGTAGAACCATAGTGACCCAGCCGTCTAC
B5: aptamer staple 87 (ssDNA)
DNA: TCATTACCCGACAATAAACAACATATTTAGGCTTTTTTTTTTTTTTTTTTTTCTGGGCGGTAGAACCATAGTGACCCAGCCGTCTAC
B6: aptamer staple 91 (ssDNA)
DNA: TATGTAAACCTTTTTTAATGGAAAAATTACCTTTTTTTTTTTTTTTTTTTTTCTGGGCGGTAGAACCATAGTGACCCAGCCGTCTAC
B7: aptamer staple 79 (ssDNA)
DNA: TGAGGCAGGCGTCAGACTGTAGCGTAGCAAGGTTTTTTTTTTTTTTTTTTTTCTGGGCGGTAGAACCATAGTGACCCAGCCGTCTAC
B8: aptamer staple 95 (ssDNA)
DNA: CGGAATTATTGAAAGGAATTGAGGTGAAAAATTTTTTTTTTTTTTTTTTTTTCTGGGCGGTAGAACCATAGTGACCCAGCCGTCTAC
B9: aptamer staple 77 (ssDNA)
DNA: TGCTCAGTCAGTCTCTGAATTTACCAGGAGGTTTTTTTTTTTTTTTTTTTTTCTGGGCGGTAGAACCATAGTGACCCAGCCGTCTAC
B10: aptamer staple 81 (ssDNA)
DNA: CCGGAAACACACCACGGAATAAGTAAGACTCCTTTTTTTTTTTTTTTTTTTTCTGGGCGGTAGAACCATAGTGACCCAGCCGTCTAC
B11: aptamer staple 89 (ssDNA)
DNA: AGAGGCATAATTTCATCTTCTGACTATAACTATTTTTTTTTTTTTTTTTTTTCTGGGCGGTAGAACCATAGTGACCCAGCCGTCTAC
B12: aptamer staple 97 (ssDNA)
DNA: CTAAAGCAAGATAGAACCCTTCTGAATCGTCTTTTTTTTTTTTTTTTTTTTTCTGGGCGGTAGAACCATAGTGACCCAGCCGTCTAC
B13: aptamer-staple 211 Edge (ssDNA)
DNA: GCTAAATCTTTTCTGTAGCTCAACATGTATTGCTGACTGGGCGGTAGAACCATAGTGACCCAG
B14: aptamer-staple 111 Edge (ssDNA)
DNA: AAACCCTCTTTTACCAGTAATAAAAGGGATTCACCAGTCACACGTTTTCTGGGCGGTAGAACCATAGTGACCCAG
B15: aptamer-staple 121 Middle (ssDNA)
DNA: TTTCATTTGGTCAATACTGGGCGGTAGAACCATAGTGACCCAGACCTGTTTATATCGCG
B16: aptamer-staple 87 Middle (ssDNA)
DNA: TCATTACCCGACAATACTGGGCGGTAGAACCATAGTGACCCAGAACAACATATTTAGGC
B17: aptamer-staple 11 Edge (ssDNA)
DNA: CCTAATTTACGCTAACGAGCGTCTAATCAATACTGGGCGGTAGAACCATAGTGACCCAG

The binders below were run against T1, Plasmodium falciparum lactate dehydrogenase (PfLDH) (Plasmodium falciparum, UniProt Q71T02 1-316) (assay: EMSA; apparent, 1:1 fit; EMSA: 25 nM strand, 0-2500 nM PfLDH (tetramer concentration in legends; text says Kd per subunit), 25 mM Tris-HCl pH 7.5, 100 mM NaCl, 20 mM imidazole, 25 C 1 h). Conditions: protein: recombinant; chain copies: 4; hairpin.
B1 showed a Kd of 713 ± 161 nM. B2 was tested, and the Kd was 647 ± 128 nM. Binder B3 has a Kd of 965 ± 265 nM. B4 gave a Kd of 1090 ± 183 nM. B5 gave a Kd of 878 ± 154 nM. Work on B6 yielded a Kd of 984 ± 177 nM. B7 was tested, and the Kd was 826 ± 300 nM. B8 was tested, and the Kd was 846 ± 161 nM. B9 showed a Kd of 726 ± 186 nM. For B10, the Kd was 970 ± 254 nM. B11 gave a Kd of 750 ± 95 nM. In the case of B12, the Kd is reported as 760 ± 126 nM.

Each binder was assayed against T1, Plasmodium falciparum lactate … (assay: EMSA; 4 C; Fig. S15 panel assignment of 606/355 unclear; EMSA: 25 nM strand, 0-2500 nM PfLDH (tetramer concentration in legends; text says Kd per subunit), 25 mM Tris-HCl pH 7.5, 100 mM NaCl, 20 mM imidazole, 25 C 1 h). Conditions: protein: recombinant; chain copies: 4; hairpin.
In the case of B13, the Kd is reported as 355 ± 73 nM. With B14 the Kd was 606 ± 164 nM.

These binders were tested against T1, Plasmodium falciparum lactate … (assay: EMSA; 4 C; EMSA: 25 nM strand, 0-2500 nM PfLDH (tetramer concentration in legends; text says Kd per subunit), 25 mM Tris-HCl pH 7.5, 100 mM NaCl, 20 mM imidazole, 25 C 1 h). Conditions: protein: recombinant; chain copies: 4; hairpin.
B15: no binding. Work on B16 yielded a Kd of 1720 ± 244 nM. With B17 the Kd was 596 ± 107 nM.
